Data published in US20240368263A1 (PROMETHEUS BIOSCIENCES, published 2024).
Like-named read-outs stand apart in the source and are kept apart here.

How the values were obtained:
[1] = biological target: T1, cynomolgus TL1A (endogenous, cynomolgus whole blood) (cynomolgus monkey, UniProt G7PRK8 1-251); test: cell-based or functional assay
T1 sequence: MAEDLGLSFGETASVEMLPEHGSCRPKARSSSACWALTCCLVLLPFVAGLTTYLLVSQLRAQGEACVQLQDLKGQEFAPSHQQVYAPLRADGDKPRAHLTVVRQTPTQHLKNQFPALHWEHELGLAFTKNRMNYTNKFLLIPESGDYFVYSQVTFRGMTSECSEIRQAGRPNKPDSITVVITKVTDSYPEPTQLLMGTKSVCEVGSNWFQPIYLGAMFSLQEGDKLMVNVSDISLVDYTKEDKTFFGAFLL

[2] = biological target: T2, human TL1A (endogenous, human whole blood assay) (human, UniProt O95150 1-251, limits assumed); test: cell-based or functional assay
T2 sequence (looked up): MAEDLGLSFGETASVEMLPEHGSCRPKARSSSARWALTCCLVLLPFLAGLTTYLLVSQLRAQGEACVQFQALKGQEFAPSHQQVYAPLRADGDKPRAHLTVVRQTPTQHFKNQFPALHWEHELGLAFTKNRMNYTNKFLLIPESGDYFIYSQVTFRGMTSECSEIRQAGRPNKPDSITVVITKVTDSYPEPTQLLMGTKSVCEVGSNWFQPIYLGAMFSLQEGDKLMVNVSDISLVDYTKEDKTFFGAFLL

[3] = biological target: T2, human TL1A (endogenous, human whole …); test: cell-based or functional assay; remark: listed apart in the source
[4] = biological target: T2, human TL1A (endogenous, human whole …); test: cell-based or functional assay; remark: listed apart in the source
[5] = biological target: T3, human TL1A (Fitzgerald, Prod. #30R-AT070) (human, UniProt O95150 72-251, limits assumed, biotinylated with EZ-Link Sulfo-NHS-LC-Biotin where used as soluble antigen); test: ELISA
T3 construct: also called TNFSF15; biotinylated human TL1A
T3 sequence (looked up): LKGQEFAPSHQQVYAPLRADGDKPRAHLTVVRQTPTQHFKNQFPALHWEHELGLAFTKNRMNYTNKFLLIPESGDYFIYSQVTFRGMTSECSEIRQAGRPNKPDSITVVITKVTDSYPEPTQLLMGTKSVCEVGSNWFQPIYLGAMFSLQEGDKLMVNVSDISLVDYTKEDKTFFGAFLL

B1: murine 5C3D11 monoclonal antibody (antibody, V domains shown)
VH: EVQLQQSGAELVKPGASVKLSCTASGFDIQDTYMHWVKQRPEQGLEWIGRIDPASGHTKYDPKFQVKATITTDTSSNTAYLQLSSLTSEDTAVYYCSRSGGLPDVWGAGTTVTVSS
VL: QIVLSQSPAILSASPGEKVTMTCRASSSVSYMYWYQQKPGSSPKPWIYATSNLASGVPDRFSGSGSGTSYSLTISRVEAEDAATYYCQQWSGNPRTFGGGTKLEIK
Potency (IC50, nM), cynomolgus whole blood assay, mean [1]: 0.18 nM
IC50, inhibition of IFN-γ production, human whole blood assay [2]: 1.38 nM

B2: clone 23, modified IgG1 / kappa (antibody)
heavy: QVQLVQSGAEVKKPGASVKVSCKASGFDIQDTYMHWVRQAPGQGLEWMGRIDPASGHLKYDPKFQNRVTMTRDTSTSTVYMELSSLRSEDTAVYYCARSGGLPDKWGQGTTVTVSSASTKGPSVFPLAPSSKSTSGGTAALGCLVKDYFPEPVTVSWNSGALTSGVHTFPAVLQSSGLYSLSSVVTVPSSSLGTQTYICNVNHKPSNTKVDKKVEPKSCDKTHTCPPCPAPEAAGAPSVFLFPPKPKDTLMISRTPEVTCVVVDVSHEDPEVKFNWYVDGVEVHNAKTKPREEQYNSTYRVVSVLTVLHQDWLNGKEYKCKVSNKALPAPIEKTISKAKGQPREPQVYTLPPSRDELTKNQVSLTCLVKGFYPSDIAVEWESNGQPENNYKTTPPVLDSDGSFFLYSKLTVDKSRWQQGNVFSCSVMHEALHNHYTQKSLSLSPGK
light: EIVLTQSPGTLSLSPGERATLSCRASSSVSYMYWYQQKPGQAPRLLIYATSNLASGIPDRFSGSGSGTDFTLTISRLEPEDFAVYYCQQWEGNPRTFGGGTKLEIKRTVAAPSVFIFPPSDEQLKSGTASVVCLLNNFYPREAKVQWKVDNALQSGNSQESVTEQDSKDSTYSLSSTLTLSKADYEKHKVYACEVTHQGLSSPVTKSFNRGEC
Potency (IC50, nM), human whole blood assay, mean [3]: 0.64 nM
Potency (IC50, nM), cynomolgus whole blood assay, mean [1]: 0.72 nM
IC50, inhibition of IFN-γ production, human whole blood assay [4]: 0.41 nM

B3: clone 14, IgG2 / kappa (antibody)
heavy: QVQLVQSGAEVKKPGASVKVSCKASGFDIQDTYMHWVRQAPGQGLEWMGRIDPASGHIKYDPKFQKRVTMTRDTSTSTVYMELSSLRSEDTAVYYCARSGGLPDMWGQGTTVTVSSASTKGPSVFPLAPCSRSTSESTAALGCLVKDYFPEPVTVSWNSGALTSGVHTFPAVLQSSGLYSLSSVVTVPSSNFGTQTYTCNVDHKPSNTKVDKTVERKCCVECPPCPAPPVAGPSVFLFPPKPKDTLMISRTPEVTCVVVDVSHEDPEVQFNWYVDGVEVHNAKTKPREEQFNSTFRVVSVLTVVHQDWLNGKEYKCKVSNKGLPAPIEKTISKTKGQPREPQVYTLPPSREEMTKNQVSLTCLVKGFYPSDIAVEWESNGQPENNYKTTPPMLDSDGSFFLYSKLTVDKSRWQQGNVFSCSVMHEALHNHYTQKSLSLSPGK
light: EIVLTQSPGTLSLSPGERATLSCRASSSVSYMYWYQQKPGQAPRLLIYATSNLASGIPDRFSGSGSGTDFTLTISRLEPEDFAVYYCQQWQGNPRTFGGGTKLEIKRTVAAPSVFIFPPSDEQLKSGTASVVCLLNNFYPREAKVQWKVDNALQSGNSQESVTEQDSKDSTYSLSSTLTLSKADYEKHKVYACEVTHQGLSSPVTKSFNRGEC
IC50, inhibition of IFN-γ production, human whole blood assay [4]: 0.35 nM

B4: clone 34, modified IgG1 / kappa (antibody)
heavy: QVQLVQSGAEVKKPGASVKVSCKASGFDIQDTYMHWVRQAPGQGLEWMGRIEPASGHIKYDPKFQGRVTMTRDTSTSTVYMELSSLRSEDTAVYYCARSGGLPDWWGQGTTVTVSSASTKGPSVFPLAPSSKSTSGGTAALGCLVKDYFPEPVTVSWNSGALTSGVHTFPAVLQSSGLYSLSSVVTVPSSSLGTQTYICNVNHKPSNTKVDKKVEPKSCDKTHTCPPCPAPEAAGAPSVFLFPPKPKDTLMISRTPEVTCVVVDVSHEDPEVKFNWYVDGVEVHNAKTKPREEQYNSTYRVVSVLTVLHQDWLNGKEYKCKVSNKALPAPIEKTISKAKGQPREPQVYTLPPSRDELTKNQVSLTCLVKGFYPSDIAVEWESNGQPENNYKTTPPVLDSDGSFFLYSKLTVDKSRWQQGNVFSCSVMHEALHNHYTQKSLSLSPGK
light: EIVLTQSPGTLSLSPGERATLSCRASSSVSYMYWYQQKPGQAPRLLIYATSNLASGIPDRFSGSGSGTDFTLTISRLEPEDFAVYYCQQWEGNPRTFGGGTKLEIKRTVAAPSVFIFPPSDEQLKSGTASVVCLLNNFYPREAKVQWKVDNALQSGNSQESVTEQDSKDSTYSLSSTLTLSKADYEKHKVYACEVTHQGLSSPVTKSFNRGEC
Potency (IC50, nM), human whole blood assay, mean [3]: 0.24 nM
Potency (IC50, nM), cynomolgus whole blood assay, mean [1]: 0.21 nM
IC50, inhibition of IFN-γ production, human whole blood assay [4]: 0.18 nM

B5: clone 14, modified IgG1 / kappa (antibody)
heavy: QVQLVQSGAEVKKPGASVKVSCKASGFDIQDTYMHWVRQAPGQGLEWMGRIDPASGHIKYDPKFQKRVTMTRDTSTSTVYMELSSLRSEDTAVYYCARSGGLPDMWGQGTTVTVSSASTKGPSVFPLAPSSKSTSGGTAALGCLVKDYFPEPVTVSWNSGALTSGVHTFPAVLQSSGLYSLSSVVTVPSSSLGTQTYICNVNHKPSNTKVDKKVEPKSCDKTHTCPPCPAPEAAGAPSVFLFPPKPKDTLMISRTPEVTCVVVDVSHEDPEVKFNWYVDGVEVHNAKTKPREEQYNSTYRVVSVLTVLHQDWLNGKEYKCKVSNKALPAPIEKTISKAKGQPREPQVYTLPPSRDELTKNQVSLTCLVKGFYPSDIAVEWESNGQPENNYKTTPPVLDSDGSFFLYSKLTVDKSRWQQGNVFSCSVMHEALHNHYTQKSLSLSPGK
light: EIVLTQSPGTLSLSPGERATLSCRASSSVSYMYWYQQKPGQAPRLLIYATSNLASGIPDRFSGSGSGTDFTLTISRLEPEDFAVYYCQQWQGNPRTFGGGTKLEIKRTVAAPSVFIFPPSDEQLKSGTASVVCLLNNFYPREAKVQWKVDNALQSGNSQESVTEQDSKDSTYSLSSTLTLSKADYEKHKVYACEVTHQGLSSPVTKSFNRGEC
Potency (IC50, nM), human whole blood assay, mean [3]: 0.3 nM
Potency (IC50, nM), cynomolgus whole blood assay, mean [1]: 0.28 nM
IC50, inhibition of IFN-γ production, human whole blood assay [4]: 0.19 nM

B6: 12835 (humanized 5C3D11) antibody, IgG format (antibody, V domains shown)
VH: QVQLVQSGAEVKKPGASVKLSCKASGFDIQDTYMHWVRQAPGQGLEWMGRIDPASGHTKYDPKFQVRVTMTTDTSTSTVYMELSSLRSEDTAVYYCSRSGGLPDVWGQGTTVTVSS
VL: EIVLTQSPGTLSLSPGERVTMSCRASSSVSYMYWYQQKPGQAPRPWIYATSNLASGVPDRFSGSGSGTDYTLTISRLEPEDFAVYYCQQWSGNPRTFGGGTKLEIK
IC50, inhibition of IFN-γ production, human whole blood assay [2]: 9.28 nM

B7: L3-4 (S92N) Fab (Fab, V domains shown)
VH: QVQLVQSGAEVKKPGASVKVSCKASGFDIQDTYMHWVRQAPGQGLEWMGRIDPASGHTKYDPKFQVRVTMTRDTSTSTVYMELSSLRSEDTAVYYCARSGGLPDVWGQGTTVTVSS
VL: EIVLTQSPGTLSLSPGERATLSCRASSSVSYMYWYQQKPGQAPRLLIYATSNLASGIPDRFSGSGSGTDFTLTISRLEPEDFAVYYCQQWNGNPRTFGGGTKLEIK
notes: Fab; also called 18-7 S92N light chain with 21-3 heavy chain
binding result [5]: binds

B8: L3-4 (S92E) Fab (Fab, V domains shown)
VH: QVQLVQSGAEVKKPGASVKVSCKASGFDIQDTYMHWVRQAPGQGLEWMGRIDPASGHTKYDPKFQVRVTMTRDTSTSTVYMELSSLRSEDTAVYYCARSGGLPDVWGQGTTVTVSS
VL: EIVLTQSPGTLSLSPGERATLSCRASSSVSYMYWYQQKPGQAPRLLIYATSNLASGIPDRFSGSGSGTDFTLTISRLEPEDFAVYYCQQWEGNPRTFGGGTKLEIK
notes: Fab; also called 18-7 S92E light chain with 21-3 heavy chain
binding result [5]: binds

B9: H3-7 (V102Q) Fab (Fab, V domains shown)
VH: QVQLVQSGAEVKKPGASVKVSCKASGFDIQDTYMHWVRQAPGQGLEWMGRIDPASGHTKYDPKFQVRVTMTRDTSTSTVYMELSSLRSEDTAVYYCARSGGLPDQWGQGTTVTVSS
VL: EIVLTQSPGTLSLSPGERATLSCRASSSVSYMYWYQQKPGQAPRLLIYATSNLASGIPDRFSGSGSGTDFTLTISRLEPEDFAVYYCQQWSGNPRTFGGGTKLEIK
notes: Fab; also called 21-3 V102Q heavy chain with 18-7 light chain
binding result [5]: binds

B10: H3-7 (V102M) Fab (Fab, V domains shown)
VH: QVQLVQSGAEVKKPGASVKVSCKASGFDIQDTYMHWVRQAPGQGLEWMGRIDPASGHTKYDPKFQVRVTMTRDTSTSTVYMELSSLRSEDTAVYYCARSGGLPDMWGQGTTVTVSS
VL: EIVLTQSPGTLSLSPGERATLSCRASSSVSYMYWYQQKPGQAPRLLIYATSNLASGIPDRFSGSGSGTDFTLTISRLEPEDFAVYYCQQWSGNPRTFGGGTKLEIK
notes: Fab; also called 21-3 V102M heavy chain with 18-7 light chain
binding result [5]: binds

B11: H3-7 (V102W) Fab (Fab, V domains shown)
VH: QVQLVQSGAEVKKPGASVKVSCKASGFDIQDTYMHWVRQAPGQGLEWMGRIDPASGHTKYDPKFQVRVTMTRDTSTSTVYMELSSLRSEDTAVYYCARSGGLPDWWGQGTTVTVSS
VL: EIVLTQSPGTLSLSPGERATLSCRASSSVSYMYWYQQKPGQAPRLLIYATSNLASGIPDRFSGSGSGTDFTLTISRLEPEDFAVYYCQQWSGNPRTFGGGTKLEIK
notes: Fab; also called 21-3 V102W heavy chain with 18-7 light chain
binding result [5]: binds

B12: H3-7 (V102K) Fab (Fab, V domains shown)
VH: QVQLVQSGAEVKKPGASVKVSCKASGFDIQDTYMHWVRQAPGQGLEWMGRIDPASGHTKYDPKFQVRVTMTRDTSTSTVYMELSSLRSEDTAVYYCARSGGLPDKWGQGTTVTVSS
VL: EIVLTQSPGTLSLSPGERATLSCRASSSVSYMYWYQQKPGQAPRLLIYATSNLASGIPDRFSGSGSGTDFTLTISRLEPEDFAVYYCQQWSGNPRTFGGGTKLEIK
notes: Fab; also called 21-3 V102K heavy chain with 18-7 light chain
binding result [5]: binds

B13: L3-4 (S92Q) Fab (Fab, V domains shown)
VH: QVQLVQSGAEVKKPGASVKVSCKASGFDIQDTYMHWVRQAPGQGLEWMGRIDPASGHTKYDPKFQVRVTMTRDTSTSTVYMELSSLRSEDTAVYYCARSGGLPDVWGQGTTVTVSS
VL: EIVLTQSPGTLSLSPGERATLSCRASSSVSYMYWYQQKPGQAPRLLIYATSNLASGIPDRFSGSGSGTDFTLTISRLEPEDFAVYYCQQWQGNPRTFGGGTKLEIK
notes: Fab; also called 18-7 S92Q light chain with 21-3 heavy chain
binding result [5]: binds

B14: L3-4 (S92H) Fab (Fab, V domains shown)
VH: QVQLVQSGAEVKKPGASVKVSCKASGFDIQDTYMHWVRQAPGQGLEWMGRIDPASGHTKYDPKFQVRVTMTRDTSTSTVYMELSSLRSEDTAVYYCARSGGLPDVWGQGTTVTVSS
VL: EIVLTQSPGTLSLSPGERATLSCRASSSVSYMYWYQQKPGQAPRLLIYATSNLASGIPDRFSGSGSGTDFTLTISRLEPEDFAVYYCQQWHGNPRTFGGGTKLEIK
notes: Fab; also called 18-7 S92H light chain with 21-3 heavy chain
binding result [5]: binds

B15: L3-4 (S92D) Fab (Fab, V domains shown)
VH: QVQLVQSGAEVKKPGASVKVSCKASGFDIQDTYMHWVRQAPGQGLEWMGRIDPASGHTKYDPKFQVRVTMTRDTSTSTVYMELSSLRSEDTAVYYCARSGGLPDVWGQGTTVTVSS
VL: EIVLTQSPGTLSLSPGERATLSCRASSSVSYMYWYQQKPGQAPRLLIYATSNLASGIPDRFSGSGSGTDFTLTISRLEPEDFAVYYCQQWDGNPRTFGGGTKLEIK
notes: Fab; also called 18-7 S92D light chain with 21-3 heavy chain
binding result [5]: binds

B16: 1D1 anti-TL1A antibody (antibody, V domains shown)
VH: QVQLVQSGAEVKKPGASVKVSCKASGYDFTYYGISWVRQAPGQGLEWMGWISTYNGNTHYARMLQGRVTMTTDTSTRTAYMELRSLRSDDTAVYYCARENYYGSGAYRGGMDVWGQGTTVTVSS
VL: EIVLTQSPATLSLSPGERATLSCRASQSVSSYLAWYQQKPGQAPRLLIYDASNRATGIPARFSGSGSGTDFTLTISSLEPEDFAVYYCQQRSNWPWTFGQGTKVEIK
Potency (IC50, nM), human whole blood assay, mean [3]: 0.27 nM
